For this assay, the target named is FgSreA, 6xHis-tagged recombinant protein (Fusarium graminearum PH-1). The experiment in a line: MST. To be noted: natural protein.

pEC50, pKd: −log10 of the molar value.

In general, pEC50 refers to the negative decadic logarithm of the EC50, by convention in mol/L. The pKd is −log10 of the Kd, conventionally taken in molar units. Regarding “FgGrx4, 6xHis-tagged recombinant protein”, the pEC50 is 4.75 and the pKd was 10.00.
